# Patent publication US20070105155A1 (Janssen / Centocor, published 2007)
# B1: TRPM8-10 fragment (rat TRPM8 D198-S352) (other)
# chain: DNTISRNSEENIVAIGIAAWGMVSNRDTLIRNCDDEGHFSAQYIMDDFMRDPLYILDNNHTHLLLVDNGCHGHPTVEAKLRNQLEKYISERTSQDSNYGGKIPIVCFAQGGGRETLKAINTSVKSKIPCVVVEGSGQIADVIASLVEVEDVLTSS
# modifications: 35S-methionine labelled
# notes: In vitro translated from pAGA3; The forward primer carries an NcoI site (start ATG before D198); also called TRPM8-10/pAGA3; rTRPM8-10
# B2: TRPM8-2 fragment (rat TRPM8 M353-T690) (other)
# chain: MVKEKLVRFLPRTVSRLPEEEIESWIKWLKEILESPHLLTVIKMEEAGDEVVSSAISYALYKAFSTNEQDKDNWNGQLKLLLEWNQLDLASDEIFTNDRRWESADLQEVMFTALIKDRPKFVRLFLENGLNLQKFLTNEVLTELFSTHFSTLVYRNLQIAKNSYNDALLTFVWKLVANFRRSFWKEDRSSREDLDVELHDASLTTRHPLQALFIWAILQNKKELSKVIWEQTKGCTLAALGASKLLKTLAKVKNDINAAGESEELANEYETRAVELFTECYSSDEDLAEQLLVYSCEAWGGSNCLELAVEATDQHFIAQPGVQNFLSKQWYGEISRDT
# modifications: 35S-methionine labelled
# notes: In vitro translated from pAGA3; also called TRPM8-2/pAGA3; rTRPM8-2
# B3: TRPM8-8 fragment (rat TRPM8 M219-S352) (other)
# chain: MVSNRDTLIRNCDDEGHFSAQYIMDDFMRDPLYILDNNHTHLLLVDNGCHGHPTVEAKLRNQLEKYISERTSQDSNYGGKIPIVCFAQGGGRETLKAINTSVKSKIPCVVVEGSGQIADVIASLVEVEDVLTSS
# modifications: 35S-methionine labelled
# notes: In vitro translated from pAGA3; also called TRPM8-8/pAGA3; rTRPM8-8
# B4: TRPM8-9 fragment (rat TRPM8 A172-S352) (other)
# chain: AQSKGAWILTGGTHYGLMKYIGEVVRDNTISRNSEENIVAIGIAAWGMVSNRDTLIRNCDDEGHFSAQYIMDDFMRDPLYILDNNHTHLLLVDNGCHGHPTVEAKLRNQLEKYISERTSQDSNYGGKIPIVCFAQGGGRETLKAINTSVKSKIPCVVVEGSGQIADVIASLVEVEDVLTSS
# modifications: 35S-methionine labelled
# notes: In vitro translated from pAGA3; The forward primer carries an NcoI site (start ATG before A172); also called TRPM8-9/pAGA3; rTRPM8-9
# B5: TRPM8-7 fragment (rat TRPM8 V145-S352) (other)
# chain: VISVTGGAKNFALKPRMRKIFSRLIYIAQSKGAWILTGGTHYGLMKYIGEVVRDNTISRNSEENIVAIGIAAWGMVSNRDTLIRNCDDEGHFSAQYIMDDFMRDPLYILDNNHTHLLLVDNGCHGHPTVEAKLRNQLEKYISERTSQDSNYGGKIPIVCFAQGGGRETLKAINTSVKSKIPCVVVEGSGQIADVIASLVEVEDVLTSS
# modifications: 35S-methionine labelled
# notes: In vitro translated from pAGA3; The forward primer carries an NcoI site (start ATG before V145); also called TRPM8-7/pAGA3; rTRPM8-7
# Molecular target: GST-CaM fusion protein (Homo sapiens (Human), UniProt P0DP23 2-149)
# Test: GST pull-down on agarose-GSH beads, 35S-labelled fragment, SDS/PAGE and autoradiography
row,binding result,Binder
1,no binding,B1
2,no binding,B2
3,no binding,B3
4,no binding,B4

# Molecular target: T1, GST (UniProt P08515 1-218 = GST)
# T1 construct: Negative control bait; also called glutathione S-transferase control
# Test: GST pull-down control (GST alone on beads), autoradiography, FIG. 2C
# Protocol: Agarose-GSH beads (50% (vol./vol.)) bound with about 1 μg of GST or GST-CaM were incubated with 10 μl of ³⁵S-labelled TRPM8 fragment for 30 min at room temperature in a final volume of 200 μl of binding buffer. At the end of the incubation, the beads were washed three times with 1.0 ml of binding buffer and resuspended in 20 μl of 2× laemmli's sample loading buffer. Protein(s) bound to the beads, including the GST-CaM fusion protein, and possibly the ³⁵S-labelled TRPM8 fragment that interact with the GST-CaM fusion protein, were separated by SDS/PAGE followed by autoradiography.
# T1 sequence (P08515 whole entry): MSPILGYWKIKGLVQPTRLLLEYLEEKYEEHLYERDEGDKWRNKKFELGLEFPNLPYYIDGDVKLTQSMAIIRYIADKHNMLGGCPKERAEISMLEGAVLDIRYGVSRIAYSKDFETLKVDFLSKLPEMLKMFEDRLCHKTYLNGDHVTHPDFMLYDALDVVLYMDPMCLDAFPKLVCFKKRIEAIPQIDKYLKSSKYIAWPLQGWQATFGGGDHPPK
row,binding result,Binder
1,no binding,B1
2,no binding,B5
3,no binding,B3
4,no binding,B4
